Data as given in patent publication US20230365711A1 (Hoffmann-La Roche, published 2023).
Substitutions are numbered along the chain they refer to.

Columns and labels:
[1] = biological target: T1, human carcinoembryonic antigen (CEA), membrane-bound on cells (human, UniProt P06731 35-685); test: FACS on MKN-45 cells
T1 construct: whole, on cells; also called CEACAM-5; CD66e
T1 sequence (looked up): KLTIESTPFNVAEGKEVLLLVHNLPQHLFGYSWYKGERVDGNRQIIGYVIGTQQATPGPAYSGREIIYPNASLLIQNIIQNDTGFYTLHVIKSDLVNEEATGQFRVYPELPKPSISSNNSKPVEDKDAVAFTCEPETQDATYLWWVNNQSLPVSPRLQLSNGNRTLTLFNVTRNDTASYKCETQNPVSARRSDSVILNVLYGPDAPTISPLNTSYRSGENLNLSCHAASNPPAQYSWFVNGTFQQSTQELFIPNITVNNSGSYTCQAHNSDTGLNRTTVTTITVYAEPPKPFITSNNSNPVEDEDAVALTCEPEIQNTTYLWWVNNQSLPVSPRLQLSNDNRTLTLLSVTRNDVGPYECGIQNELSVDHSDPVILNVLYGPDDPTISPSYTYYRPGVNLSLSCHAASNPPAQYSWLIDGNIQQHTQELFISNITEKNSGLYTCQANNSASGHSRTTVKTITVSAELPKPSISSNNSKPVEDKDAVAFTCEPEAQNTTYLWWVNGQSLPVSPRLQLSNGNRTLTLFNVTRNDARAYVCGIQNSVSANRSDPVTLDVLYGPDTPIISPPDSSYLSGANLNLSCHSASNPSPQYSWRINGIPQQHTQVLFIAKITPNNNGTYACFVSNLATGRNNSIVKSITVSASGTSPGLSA
Method: CH1A1 includes the M69F/T71L double point mutation. The latter three variants have the entire frameworks 1, 2, or 3, respectively, replaced by the murine counterpart. […] In this assay, cell binding of the CH1A-based antibody variants to CEA-expressing MKN-45 cells was analyzed at various concentrations. The affinity-matured light chain 2F1 was identical for all antibodies tested except for the parental antibody where the original light chain CL1A was used. Mean fluorescence was determined by FACS analysis. […] The DLS assay was performed using 1 mg/ml of the antibodies in a buffer of 20 mM Histidine and 140 mM NaCl at pH 6.0. The assay was conducted starting at 25° C. with an incremental temperature increase of 0.05° C./min up to 70° C. All antibodies tested in this assay had 2F1 as the light chain

[2] = biological target: huNABA-avi-his (hybrid protein N-A1-B3-A2: N and A1 domains of human BGP, B3 domain of human CEA, A2 domain of BGP, with precision protease site, avi tag and (His)6 tag), biotinylated (human); test: Biacore on immobilized NABA-avi-his; Bivalent Affinity
[3] = biological target: T2, huNABA-avi-his (hybrid protein N-A1-B3-A2: N and A1 domains of human BGP, B3 domain of human CEA, A2 domain … (human, biotinylated at the avi tag (in vivo, co-transfected biotin ligase))); test: Biacore, Fab on immobilized NABA-avi-his; column Monovalent Affinity
T2 construct: also called NABA-avi-his reagent; biotinylated NABA
T2 chain: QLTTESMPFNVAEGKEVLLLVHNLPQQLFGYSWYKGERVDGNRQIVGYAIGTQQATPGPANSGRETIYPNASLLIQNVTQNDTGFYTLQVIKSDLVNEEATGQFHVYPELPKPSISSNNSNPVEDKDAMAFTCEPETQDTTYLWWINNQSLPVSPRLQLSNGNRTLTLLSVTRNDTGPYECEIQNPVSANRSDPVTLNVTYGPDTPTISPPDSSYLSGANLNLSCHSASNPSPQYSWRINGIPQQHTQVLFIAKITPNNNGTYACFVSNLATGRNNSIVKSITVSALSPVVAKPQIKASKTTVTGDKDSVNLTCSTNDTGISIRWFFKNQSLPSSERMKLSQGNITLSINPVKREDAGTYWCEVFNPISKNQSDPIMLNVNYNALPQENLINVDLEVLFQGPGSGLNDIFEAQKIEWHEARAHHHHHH

[4] = biological target: T2, huNABA-avi-his (hybrid protein …); test: Biacore, column Affinity, CDR-H3 rows; antigen not named on the sheet, NABA-avi-his per paragraph 230
[5] = biological target: T2, huNABA-avi-his (hybrid protein …); test: Biacore, column Affinity, CDR-H1 and CDR-H2 rows; antigen not named on the sheet, NABA-avi-his per paragraph 230
[6] = biological target: T1, human carcinoembryonic antigen (CEA), …; test: flow cytometry on MKN45 cells, IgG1/kappa
Method: (§1) An affinity matured heavy chain variable region construct, CH7A rF9, and an affinity matured light chain variable region construct, CL1A rH11, were paired with the parent light chain variable region construct and the heavy chain variable region construct, respectively, and with each other. All antibodies were converted into human IgG1/kappa and binding to the CEA-positive cell-line MKN45 was measured by flow cytometry. […] The matured light chain shifts the EC50 values to lower numbers, whereas the matured heavy chains (rF9 in FIG. 6, and rB9 in FIG. 15) shift the total fluorescence signal intensity in a flow-cytometry measurement. […] The combination of these two chains increases the affinity even further.

[7] = biological target: T1, human carcinoembryonic antigen (CEA), …; test: flow cytometry on MKN45 cells, IgG [upper panel]
Method: as §1

[8] = biological target: T1, human carcinoembryonic antigen (CEA), …; test: flow cytometry on CEA positive MKN45 cells, IgG [lower panel]
Method: as §1

[9] = biological target: T2, huNABA-avi-his (hybrid protein …); test: Biacore on immobilized NABA-avi-his; Bivalent Affinity
[10] = biological target: T2, huNABA-avi-his (hybrid protein …); test: Biacore SPR, Fab; antigen not named on the sheet, NABA-avi-his per paragraph 230
[11] = biological target: T2, huNABA-avi-his (hybrid protein …); test: Biacore, column Affinity, CDR-H1 and CDR-H2 rows; antigen not named on the sheet, NABA-avi-his per paragraph 230
[12] = biological target: T2, huNABA-avi-his (hybrid protein …); test: Biacore, column Affinity, CDR-L1 and CDR-L2 rows (QNVGTN and PLI-YSASYRYS); antigen not named on the sheet, NABA-avi-his per paragraph 230

B1: anti-CEA antibody with heavy chain CH1A4 and light chain 2F1 (antibody, V domains shown)
VH: QVQLVQSGAEVKKPGASVKVSCKASGYTFTEFGMNWVRQAPGQGLEWMGWINTKTGEATYVEEFKGRFAFSLETSATTAYLQINNLKNEDTAKYFCARWDFYDYVEAMDYWGQGTTVTVSS
VL: DIQMTQSPSSLSASVGDRVTITCKASAAVGTYVAWYQQKPGKAPKLLIYSASYRKRGVPSRFSGSGSGTDFTLTISSLQPEDFATYYCHQYYTYPLFTFGQGTKLEIKR
In the case of B1, the “EC50 (read off the curve)” value [1] is reported as ~0.8 µg/mL.

B2: H3 Full (5) 19 (Fab, V domains shown)
VH: QVQLVQSGSELKKPGASVKVSCKASGYTFTEFGMSWVRQAPGQGLEWMGWINTKTGEATYVEEFKGRFVFSLDTSVSTAYLQISSLKAEDTAVYYCARWDAFEYVKALDYWGQGTTVTVSS
VL: DIQMTQSPSSLSASVGDRVTITCKASQNVGTNVAWYQQKPGKAPKLLIYSASYRYSGVPSRFSGSGSGTDFTLTISSLQPEDFATYYCHQYYTYPLFTFGQGTKLEIK
Binder B2 has a Kd [2] of 0.19 nM, a koff [2] of 0.000175 s⁻¹ and a kon [2] of 902000 M⁻¹ s⁻¹. For the same binder, the Kd [3] was 24 nM, the koff [3] was 0.0013 s⁻¹ and the kon [3] was 54200 M⁻¹ s⁻¹. For the same binder, the Kd [4] was 26 nM and the Kd [5] was 26 nM.

B3: antibody with parent heavy chain variable region CH7A and affinity matured light chain variable region CL1A rH11 (antibody, V domains shown)
VH: B2 VH with S35N, A101F, F102Y, E103D, K106E, L108M
VL: B2 VL with N28T, G30S, T31A, S50L, S56R
notes: The suffix G2(1) is not explained; also called CH7A, CL1ArH11; CH7A, CL1A rH11 G2(1)
For B3, the “EC50 (read off the curve)” value [6] was ~0.3 µg/mL and the “EC50 (read off the curve)” value [7] was ~0.5 µg/mL.

B4: antibody with heavy chain variable region CH7A and affinity matured light chain variable region CL1A rH7 (antibody, V domains shown)
VH: B2 VH with S35N, A101F, F102Y, E103D, K106E, L108M
VL: B2 VL with N28K, G30L, S50L
notes: also called CH7A, CL1ArH7
B4 was tested, and the “EC50 (read off the curve)” value [7] was ~0.7 µg/mL.

B5: humanized PR1A3 antibody comprising heavy chain variable region construct CH7A and light chain variable region construct CL1A (antibody, human IgG1, V domains shown)
VH: B2 VH with S35N, A101F, F102Y, E103D, K106E, L108M
VL: B2 VL
notes: also called CH7A CL1A; CH7A, CL1A
In the case of B5, the “EC50 (read off the curve)” value [6] is reported as ~0.6 µg/mL, the “EC50 (read off the curve)” value [8] is reported as ~0.6 µg/mL and the Kd [9] is reported as 2 nM. For the same binder, the koff [9] was 0.000552 s⁻¹ and the kon [9] was 282000 M⁻¹ s⁻¹.

B6: antibody with affinity matured heavy chain variable region CH7A rB9 and affinity matured light chain variable region CL1A rH11 G2(1) (antibody, V domains shown)
VH: B2 VH with S35N, T55S, A101F, F102Y, E103D, K106E, L108M
VL: B2 VL with N28T, G30S, T31A, S50L, S56R
notes: also called CH7A rB9, CL1A rH11 G2(1); CH7ArB9, CL1A rH11G2(1)
With B6 the “EC50 (read off the curve)” value [8] was ~0.5 µg/mL.

B7: anti-CEA Fab with affinity matured heavy chain CH7A H4E9 and unmatured light chain CL1A (Fab, V domains shown)
VH: B2 VH with S35N, V61I, A101F, F102Y, E103D, K106E, L108M
VL: B2 VL
notes: Fab format, bacterially expressed; also called CH7A H4E9 + CL1A
With B7 the Kd [3] was 402 nM, the koff [3] was 0.0021 s⁻¹ and the kon [3] was 5220 M⁻¹ s⁻¹. For the same binder, the Kd [10] was 518 nM, the Kd [11] was 402 nM and the Kd [12] was 402 nM.
